Data: publication doi:10.1101/2025.04.27.650876, “Embryonic stem cell factors DPPA2/4 facilitate a unique chromatin state in non-small cell lung cancer” (bioRxiv, 2025)

Molecular target: T1, Developmental Pluripotency Associated 2 (DPPA2), endogenous (human (endogenous in NCI-H661), UniProt Q7Z7J5 1-298)
T1 construct: DPPA2, human, endogenous in NCI-H661 non-small cell lung cancer cells; source: endogenous, NCI-H661 whole cell lysate
T1 sequence (looked up): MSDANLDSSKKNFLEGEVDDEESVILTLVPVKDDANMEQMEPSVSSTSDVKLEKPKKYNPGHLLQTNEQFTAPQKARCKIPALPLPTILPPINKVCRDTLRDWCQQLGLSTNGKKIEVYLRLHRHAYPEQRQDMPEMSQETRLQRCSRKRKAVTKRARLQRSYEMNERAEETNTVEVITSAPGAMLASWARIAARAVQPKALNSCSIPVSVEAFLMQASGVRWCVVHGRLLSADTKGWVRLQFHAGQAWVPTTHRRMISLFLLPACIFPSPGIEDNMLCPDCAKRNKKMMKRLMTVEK
Assay: affinity purification with mass spectrometry; endogenous DPPA2 or DPPA4 immunoprecipitated from NCI-H661 whole cell lysates (n=4 per condition); enrichment against species matched IgG IP by label-free quantitation; relative iBAQ for stoichiometry
Details: partners not purified

ratio between DPPA2 and DPPA4 (relative iBAQ) in the DPPA2-IP: > 1
B1: Developmental Pluripotency Associated 4 (DPPA4), endogenous (natural protein, human (endogenous in NCI-H661), UniProt Q7L190 1-304, looked up)
chain: MLRGSASSTSMEKAKGKEWTSTEKSREEDQQASNQPNSIALPGTSAKRTKEKMSIKGSKVLCPKKKAEHTDNPRPQKKIPIPPLPSKLPPVNLIHRDILRAWCQQLKLSSKGQKLDAYKRLCAFAYPNQKDFPSTAKEAKIRKSLQKKLKVEKGETSLQSSETHPPEVALPPVGEPPALENSTALLEGVNTVVVTTSAPEALLASWARISARARTPEAVESPQEASGVRWCVVHGKSLPADTDGWVHLQFHAGQAWVPEKQEGRVSALFLLPASNFPPPHLEDNMLCPKCVHRNKVLIKSLQWE
notes: DPPA4, human, endogenous in NCI-H661 non-small cell lung cancer cells; source: endogenous, NCI-H661 whole cell lysate
